Values quoted from earlier work as cited in paper PMC4771075.

Target: kappa opioid receptor (Rattus norvegicus) (UniProt P34975)
Test: radioligand

kappa opioid receptor (Rattus norvegicus), sequence (P34975 whole entry): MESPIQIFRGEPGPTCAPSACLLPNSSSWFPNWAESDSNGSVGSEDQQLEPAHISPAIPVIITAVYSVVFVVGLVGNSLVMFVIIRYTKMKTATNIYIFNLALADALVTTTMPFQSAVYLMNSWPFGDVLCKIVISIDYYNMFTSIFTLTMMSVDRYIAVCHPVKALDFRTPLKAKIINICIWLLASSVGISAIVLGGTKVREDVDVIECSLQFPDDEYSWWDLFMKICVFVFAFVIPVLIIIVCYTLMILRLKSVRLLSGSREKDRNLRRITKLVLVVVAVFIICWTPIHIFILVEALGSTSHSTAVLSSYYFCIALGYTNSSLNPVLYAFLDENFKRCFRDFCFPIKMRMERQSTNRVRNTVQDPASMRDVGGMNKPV

In the case of “Dyn A(1-11)NH2 1-11 (from UniProt P01213)”, the Ki is listed as 0.57 nM.
